What follows are substances tested against mk03_mouse Mapk3 (UniProt Q63844).
Chain of mk03_mouse Mapk3 (Q63844 whole entry): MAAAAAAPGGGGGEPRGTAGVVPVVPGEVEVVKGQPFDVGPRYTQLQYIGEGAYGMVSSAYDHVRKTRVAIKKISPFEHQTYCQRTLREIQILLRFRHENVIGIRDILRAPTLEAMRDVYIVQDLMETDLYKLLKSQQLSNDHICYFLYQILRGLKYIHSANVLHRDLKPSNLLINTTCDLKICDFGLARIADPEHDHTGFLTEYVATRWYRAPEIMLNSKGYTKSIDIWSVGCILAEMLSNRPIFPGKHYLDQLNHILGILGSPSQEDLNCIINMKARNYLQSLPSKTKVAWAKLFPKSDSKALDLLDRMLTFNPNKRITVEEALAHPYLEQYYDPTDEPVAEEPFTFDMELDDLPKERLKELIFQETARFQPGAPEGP

Chain of Krueppel-like factor 4 (Mus musculus), Q60793 L89A;R91A;R92A (Q60793 whole entry L89A/R91A/R92A): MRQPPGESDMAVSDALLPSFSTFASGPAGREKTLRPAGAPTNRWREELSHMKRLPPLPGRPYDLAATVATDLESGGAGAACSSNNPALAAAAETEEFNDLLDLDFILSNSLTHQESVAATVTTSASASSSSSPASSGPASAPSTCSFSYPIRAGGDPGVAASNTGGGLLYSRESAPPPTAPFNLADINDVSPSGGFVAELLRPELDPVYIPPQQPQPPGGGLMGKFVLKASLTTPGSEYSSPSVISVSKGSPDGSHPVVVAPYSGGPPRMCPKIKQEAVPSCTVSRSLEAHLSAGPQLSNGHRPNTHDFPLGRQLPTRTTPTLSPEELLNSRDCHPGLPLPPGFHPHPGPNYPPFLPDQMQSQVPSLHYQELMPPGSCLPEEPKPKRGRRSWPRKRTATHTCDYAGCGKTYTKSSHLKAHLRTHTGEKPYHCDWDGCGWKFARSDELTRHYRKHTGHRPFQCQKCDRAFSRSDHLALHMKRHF
Chain of Krueppel-like factor 4 (Mus musculus), Q60793 S140A (Q60793 whole entry S140A): as the sequence (Q60793 whole entry L89A/R91A/R92A) above, with A89L, A91R, A92R, S140A counted along it
Chain of Krueppel-like factor 4 (Mus musculus), Q60793 L101A;L103A (Q60793 whole entry L101A/L103A): as the sequence (Q60793 whole entry L89A/R91A/R92A) above, with A89L, A91R, A92R, L101A, L103A counted along it
Chain of Krueppel-like factor 4 (Mus musculus), Q60793 L89A;R91A;R92A;L101A;L103A (Q60793 whole entry L89A/R91A/R92A/L101A/L103A): as the sequence (Q60793 whole entry L89A/R91A/R92A) above, with L101A, L103A counted along it
Chain of Krueppel-like factor 4 (Mus musculus), Q60793 S136A (Q60793 whole entry S136A): as the sequence (Q60793 whole entry L89A/R91A/R92A) above, with A89L, A91R, A92R, S136A counted along it
Chain of Krueppel-like factor 4 (Mus musculus), Q60793 S132A (Q60793 whole entry S132A): as the sequence (Q60793 whole entry L89A/R91A/R92A) above, with A89L, A91R, A92R, S132A counted along it

Row | Substance | effect of a mutation on the interaction
1 | Krueppel-like factor 4 (Mus musculus), Q60793 L89A;R91A;R92A | disrupting interaction strength
2 | Krueppel-like factor 4 (Mus musculus), Q60793 L89A;R91A;R92A;L101A;L103A | disrupting interaction strength
3 | Krueppel-like factor 4 (Mus musculus), Q60793 L101A;L103A | decreasing interaction strength

What follows are substances tested against fbw1b_human FBXW11 (UniProt Q9UKB1).
Chain of fbw1b_human FBXW11 (Q9UKB1 whole entry): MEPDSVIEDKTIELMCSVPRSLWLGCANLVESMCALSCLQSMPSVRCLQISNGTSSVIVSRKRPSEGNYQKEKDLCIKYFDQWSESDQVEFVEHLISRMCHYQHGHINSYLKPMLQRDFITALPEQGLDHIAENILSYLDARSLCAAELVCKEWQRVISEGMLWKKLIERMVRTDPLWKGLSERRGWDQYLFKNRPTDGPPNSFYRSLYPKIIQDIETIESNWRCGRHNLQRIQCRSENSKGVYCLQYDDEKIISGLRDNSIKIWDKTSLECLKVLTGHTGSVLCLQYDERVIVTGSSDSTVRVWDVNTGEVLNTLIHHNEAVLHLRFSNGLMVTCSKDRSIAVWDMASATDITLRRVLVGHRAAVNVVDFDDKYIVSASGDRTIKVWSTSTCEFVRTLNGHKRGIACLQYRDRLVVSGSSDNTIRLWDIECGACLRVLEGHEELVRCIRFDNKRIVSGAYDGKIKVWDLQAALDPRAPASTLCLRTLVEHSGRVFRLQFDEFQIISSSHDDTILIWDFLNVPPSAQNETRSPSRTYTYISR

Row | Substance | effect of a mutation on the interaction
4 | Krueppel-like factor 4 (Mus musculus), Q60793 S132A | decreasing interaction strength
5 | Krueppel-like factor 4 (Mus musculus), Q60793 S136A | decreasing interaction strength
6 | Krueppel-like factor 4 (Mus musculus), Q60793 S140A | decreasing interaction strength

From IntAct's records for PubMed 22307056
